This note sets out measurements from publication PMC4790447.

Changes are numbered by the printed parent chain. In names and notes the source's numbering stands.

B1: wild-type human ventricular regulatory light chain, dephosphorylated (mock phosphorylation reaction) (natural protein)
chain: MAPKKAKKRAGGANSNVFSMFEQTQIQEFKEAFTIMDQNRDGFIDKNDLRDTFAALGRVNVKNEEIDEMIKEAPGPINFTVFLTMFGEKLKGADPEETILNAFKVFDPEGKGVLKADYVREMLTTQAERFSKEEVDQMFAAFPPDVTGNLDYKNLVHIITHGEEKD
B2: wild-type human ventricular regulatory light chain, phosphorylated by MLCK (natural protein)
chain: B1 chain
modifications: phosphoserine at 15 (95.7 ± 3.6% phosphorylated)
B3: N47K human ventricular regulatory light chain, dephosphorylated (mock phosphorylation reaction) (natural protein)
chain: B1 chain with N47K
B4: N47K human ventricular regulatory light chain, phosphorylated by MLCK (natural protein)
chain: B1 chain with N47K
modifications: phosphoserine at 15 (98.4 ± 1.6% phosphorylated)
B5: R58Q human ventricular regulatory light chain, dephosphorylated (mock phosphorylation reaction) (natural protein)
chain: B1 chain with R58Q
B6: R58Q human ventricular regulatory light chain, phosphorylated by MLCK (natural protein)
chain: B1 chain with R58Q
modifications: phosphoserine at 15 (87.4 ± 0.8% phosphorylated; full phosphorylation never accomplished)

In the experiment the target is RLC-depleted porcine cardiac β-myosin (porcine) (UniProt P79293). In words: co-sedimentation.
The molecule B1 yielded a percent reconstitution (densitometry) of 108%.

Regarding B2, the percent reconstitution (densitometry) came out at 109%.

Turning to B3, the percent reconstitution (densitometry) amounted to 106%.

In the case of B4, the percent reconstitution (densitometry) was 96.2%.

In turn, B5 displayed a percent reconstitution (densitometry) of 97.8%.

For B6, the percent reconstitution (densitometry) was found to be 107%.
